Results as given in patent US11110182B2, “Multifunctional RNA nanoparticles and methods for treating cancer and therapeutic resistant cancer” (University of Cincinnati, priority 2016, dated 2021).

Experiments:
Assay type in all cases: cell-based, human
BT474 cells = assay: In vitro mammosphere culture assay, BT474 cells
Description: FIG. 4A) BT474 cells were treated with pRNA nanoparticles in combination with vehicle or 1 μM 4-hydroxy-tamoxifen (4-OHT) as indicated for 48 h, and assayed for cell viability by MTT assay. FIG. 4B) Cells were treated as above and the migration and FIG. 4C) invasion capabilities were examined. FIG. 4D) Cells were treated as above and assayed for in vitro mammosphere formation. FIG. 4E) The number of mammospheres was counted, and FIG. 4F) the mammosphere size was calculated. Scale bar: 10 μm.
Migration and metastasis assay. The 8-μm-pore-size polycarbonate membrane, which separates the two chambers of a 6.5-mm Transwell (Costar), was coated with or without 1:8 DMEM-diluted Matrigel (Corning). Transwell assay was performed as previously described.^57 Briefly, BT474 cells were treated with pRNAs alone or together with 4-hydroxy-tamoxifen (4-OHT) for 48 h and starved with serum-free DMEM containing 0.2% BSA overnight. On the next day, cells were collected and 2×10^5 cells were seeded to the upper chamber of Transwell. The lower chamber was filled with 600 μL DMEM medium containing 10% FBS. After incubation at 37° C. for 24 h, cells on the membranes were fixed and stained with 0.1% crystal violet in 20% ethanol solution. Cells at top side of membranes were removed completely, and cells at the bottom side were examined with an Olympus SZX12 microscope and counted. • Mammosphere culture and breast cancer stem cell analyses. BT474 cells were treated with pRNAs for 48 h. Then, cells were suspended in DMEM/F12 medium supplemented with 1×B27 (Thermo Fisher), 20 ng/mL bFGF and 20 ng/mL EGF (R&D), and added into 24-well ultralow attachment plates. After treatment with or without 1 μM 4-OHT for 7 days, mammosphere formation was recorded using an Axiovert S100 TV inverted microscope (Zeiss). Xenograft tumor tissues were cut into small pieces and digested with trypsin and collagenase at 37° C. for 1 h, and tumor cells were collected and rinsed with pre-cold PBS. All cells were stained with FITC-conjugated anti-CD44 antibody and PE-conjugated anti-CD24 antibody (BD Pharmingen) in the dark on ice for 30 min. After resuspension with 0.5 mL PBS buffer, CD44^+/CD24^−/low cell population was analyzed by flow cytometry. • Orthotopic xenograft breast tumor mouse model, in vivo imaging and anti-tumor therapy. […] The tumor volume was monitored every 3 days, and tumor size was calculated using the formula: volume=0.5×(width)^2×(length). […] After the tumor weights were recorded, part of the tumor tissues were digested with trypsin and collagenase, lysed for extraction of total proteins and RNAs, or fixed in 10% neutral buffered formalin along with organ tissues, respectively, for further western blot, real-time PCR and IHC studies, etc. […]

MCF-7/HER2 cells = assay: MTT assay, MCF-7/HER2 cells; conditions: MCF-7/HER2, 10 μg/mL pRNA and 1 μM tamoxifen, 48 h
Description: (§1) FIGS. 10A-10D. Evidence that pRNA-HER2apt-siMED1 nanoparticles silenced MED1 expression and sensitized two other HER2+ breast cancer cells to tamoxifen treatment. FIG. 10A) Two HER2-overexpressing breast cancer cell lines MCF7/TAM and FIG. 10B) MCF7/HER2, were treated with 10 μg/mL pRNA-HER2apt-siMED1 nanoparticles or scramble control for 48 h, and then MED1 protein level was determined using western blots. FIG. 10C) MCF7/TAM and FIG. 10D) MCF7/HER2 cells were treated with 10 μg/mL pRNA nanoparticles and/or 1 μM tamoxifen (TAM) as indicated for 48 h, and then cell growth was determined using an MTT assay.
(§2) Since MED1 has recently been reported to play key roles in tamoxifen resistance of human breast cancer, the combinational effects of pRNA-HER2apt-siMED1 nanoparticles with tamoxifen on the growth and metastatic potential of BT474 cells was examined. […] The combinational effect of pRNA-HER2apt-siMED1 nanoparticles with tamoxifen treatment on two other HER2-overexpressing breast cancer cells MCF-7/HER2 and MCF-7/TAM were also confirmed (FIGS. 10C-D).

MED1 = MED1 protein level by western blots in MCF-7/TAM cells; conditions: 10 μg/mL, 48 h
Description: as §1
Next, the ability of pRNA-HER2apt-siMED1 nanoparticles to silence the expression of MED1 in BT474 and MDA-MB-231 human breast cancer cells was examined. Using real-time PCR analyses, a significant depletion of nearly 70% of MED1 mRNA in BT474 cells after pRNA-HER2apt-siMED1 but not pRNA-HER2apt^mut-siMED1 treatment was found (FIG. 3A).

MCF-7/TAM cells = assay: MTT assay, MCF-7/TAM cells; conditions: 10 μg/mL pRNA and 1 μM tamoxifen, 48 h
Description: as §1, §2

[1] = BT474, in combination with tamoxifen (1 μM 4-OHT, 7 days)

B1: pRNA-HER2apt-siMED1: 3-WJ pRNA nanoparticle bearing a HER2-targeting RNA aptamer and two different MED1 siRNAs; strands p1 SEQ ID NO: 3, p2 SEQ ID NO: 4 (nucleic acid)
chain 1: GGACAGUGAAAGUGAGUCAAAGGAUCAAUCAUGGCCAAAGAUGUUACUUUGAGAGCCUU
chain 2: GGCUCUCAAAGUAACAUCUAAGGCCAUGUGUAUGUGGGGGGAGGACGAUGCGGUCUGCUGUGCUUGAUAUGCCCCAGACGACUCGCCCCCCACAUACUUUGUUGAUCCAAUGACUCACUUUCACUGUCCUU
modifications: 2'-F modification; third strand may lack entry; pRNA-HER2apt-siMED1, p1; pRNA-HER2apt-siMED1, p2
- number of mammosphere formation (BT474 cells; [1]): greatly reduced
- size of mammospheres (BT474 cells; [1]): greatly reduced
- number of mammosphere formation (BT474 cells; BT474, nanoparticles alone): greatly reduced
- size of mammospheres (BT474 cells; BT474, nanoparticles alone): greatly reduced
- combinational effect with tamoxifen on cell growth (MCF-7/HER2 cells): confirmed
- MED1 silencing (MED1): confirmed
- combinational effect with tamoxifen on cell growth (MCF-7/TAM cells): confirmed
